According to PMC11035800:

How the values were obtained:
RUNX1 = RUNX1 (UniProt Q01196); test: anti-MYC IP, anti-RUNX1 blot; details: reference: MYC-CARM1 wild type
CARM1 = CARM1 (UniProt Q86X55); test: anti-HA co-IP, anti-MYC blot; details: reference: MYC-CARM1 wild type; sites Y149
Chain of UniProt Q86X55 (Q86X55 whole entry Y149F): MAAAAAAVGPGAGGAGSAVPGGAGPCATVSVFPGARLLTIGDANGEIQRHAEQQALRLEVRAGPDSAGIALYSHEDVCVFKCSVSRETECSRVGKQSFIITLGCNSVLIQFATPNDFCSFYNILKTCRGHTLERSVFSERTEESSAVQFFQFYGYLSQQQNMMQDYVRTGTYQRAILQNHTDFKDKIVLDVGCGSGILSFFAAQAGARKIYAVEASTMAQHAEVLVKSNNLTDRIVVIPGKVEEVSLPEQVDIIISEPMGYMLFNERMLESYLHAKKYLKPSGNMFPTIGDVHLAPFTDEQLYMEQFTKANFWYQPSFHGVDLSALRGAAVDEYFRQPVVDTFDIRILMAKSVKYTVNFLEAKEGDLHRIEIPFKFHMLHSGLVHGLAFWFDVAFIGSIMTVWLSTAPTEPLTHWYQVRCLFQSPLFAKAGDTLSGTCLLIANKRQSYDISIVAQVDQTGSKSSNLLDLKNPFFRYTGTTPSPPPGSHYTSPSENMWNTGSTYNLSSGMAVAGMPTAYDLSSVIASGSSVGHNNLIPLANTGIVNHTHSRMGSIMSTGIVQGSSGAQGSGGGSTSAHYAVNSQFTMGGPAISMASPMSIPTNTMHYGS

CARM1 (from UniProt Q86X55) MYC-CARM1 Y334F
binding against the reference (RUNX1; sites Y334): lost

CARM1 (from UniProt Q86X55) MYC-CARM1 Y149F
binding against the reference (CARM1): weaker
binding against the reference (RUNX1; sites Y149): lost
